In the data set the test system is MS2 coat protein. Kind of data set: apparent KD of MS2 coat protein; designed switch direction (-1 OFF switch, 1 ON switch): -1; higher = weaker reporter binding. The essentials:
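An oligonucleotide input, 200 uM small-molecule ligand, or no input was present during titration of SNAP-549-labelled MS2 coat protein, which was doubled from 0.7 or 1.5 nM to 3 µM. Designed RNA switches had been transcribed on Illumina chips by stalled E. coli RNA polymerase. Apparent KD per design is the median over clusters of curves fitted to normalised cluster fluorescence.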

The mark [1] stands for this setting: Eterna round: R95, input ligand: microRNA oligo, concentration not stated.
Where [2] appears, read: input ligand: microRNA oligo, concentration not stated.
Where [3] appears, read: Eterna round: R95, input ligand: FMN 200 uM.
Setting [4] is: Eterna round: R95, input ligand: none.

Turning to “GCGUGACAUGAGGAUCACCCAUGUGAGGAUAUCUGGAUAAUCUUUAUUUUAGAUAUCCAGAGAAGGCACAUGCU [Ex1-3: 3Z] (puzzle: Exclusion 1)”, the “apparent KD of MS2 coat protein” value under setting [1] was determined as 170 nM.
“GCGUUUUGGUGAGGAUAUCGGCCCUAAACCGGGCAACAUGAGGAUCACCCAUGUACGUGAUCCUGCGAGAAGGCACCGAUUAUA [Digeerle] (Eterna round: R96, puzzle: Exclusion NG 2)”: the “apparent KD of MS2 coat protein” value reads like this: (input ligand: FMN 200 uM) 122 nM; under setting [2], 104 nM; (input ligand: none) 123 nM.
“GCUAGAGCAGGAUAUCUAAAUCCUCACAUGAGGAUCACCCAUGUAGUCGAAAGACUAAGAAGAGAAGGGCUCUAGC [Omei Ex5 E19] (Eterna round: R97, puzzle: Exclusion 5)”: the “apparent KD of MS2 coat protein” value worked out at 543 nM (input ligand: FMN 200 uM) and 1290 nM (input ligand: none).
As for “GCUAGUCAUGUCAGGAUAUGCUGUUCCUUGGAACAGCAGAAGGGACAUGAGGAUCACCCAUGUGCCUAACUAGC [Mat - Exclusion 4 - JL Mod - D12] (Eterna round: R97, puzzle: Brourd's mod of Exclusion 4)”, the “apparent KD of MS2 coat protein” value (input ligand: FMN 200 uM) was 558 nM and the “apparent KD of MS2 coat protein” value (input ligand: none) was 43.8 nM.
With “GCUCGCGGGCAAGGAUAUCCUACGCUGUUCUGGCUCGUGUCUGUUACAUGAGGAUCACCCAUGUGGGAGAAGGUGCACCAGGGC [Design 47] (Eterna round: R96, puzzle: Exclusion NG 2)”, the “apparent KD of MS2 coat protein” value (input ligand: FMN 200 uM) was 24.9 nM, the “apparent KD of MS2 coat protein” value under setting [2] is 17.4 nM and the “apparent KD of MS2 coat protein” value (input ligand: none) amounted to 22.6 nM.
On to “GCUGCGCGAGGAUAUGCGGUUCGCGCGGUGGCCGCUGGCGGACAUGAGGAUCACCCAUGUAGAAGGCGUGCGGG [Apr-15 SS2-60] (puzzle: Exclusion 2)”, for which the “apparent KD of MS2 coat protein” value under setting [1] turned out to be 11.7 nM.
Regarding “GCUGCGCGAGGAUAUGCGGUUUGCGCUGUGGCCCGUGGCGUACAUGAGGAUCACCCAUGUAGAAGGCGUGCGGG [Apr-15 SS2-56] (puzzle: Exclusion 2)”, the “apparent KD of MS2 coat protein” value under setting [1] came to 10.4 nM.
As to “GCUGGACGAGGAUAUACAUGAGGAUCACCCAUGUGAUCAGCAGUCCUCGGACUGCAAUGUAGAAGGUGUCCAGC [E3/1-B2] (Eterna round: R97, puzzle: Exclusion 3)”, the “apparent KD of MS2 coat protein” value (input ligand: FMN 200 uM) turned out to be 302 nM and the “apparent KD of MS2 coat protein” value (input ligand: none) is 2320 nM.
Consider “GCUGGUCAAGGAUAUACAUUCGUGCUUCGGCACGUAAGAUCACAUGAGGAUCACCCAUGUAGAAGGUGACCAGC [E2/5-C1] (Eterna round: R97, puzzle: Exclusion 2)”, for which the “apparent KD of MS2 coat protein” value reads like this: (input ligand: FMN 200 uM) 700 nM; (input ligand: none) 112 nM.
As to “GCUGGUCGAGGAUAUACAUAACGUGCUUCGGCACGAGAUCUACAUGAGGAUCACCCAUGUAGAAGGCGACCAGC [E2/10-A1] (Eterna round: R97, puzzle: Exclusion 2)”, the “apparent KD of MS2 coat protein” value runs as follows: (input ligand: FMN 200 uM) 57.8 nM; (input ligand: none) 18 nM.
Turning to “GCUUGGCGAGGAUAUACAUGAGGAUCACCCAUGUGAGAGAAAGAAGUGAGGAAGAAAAGUAGAAGGCGCUGAGG [Mat - Exclusion 3 - Mod of Salish D60] (puzzle: Exclusion 3)”, the “apparent KD of MS2 coat protein” value reads like this: under setting [3], 165 nM; under setting [1], 50.5 nM; under setting [4], 75.4 nM.
Regarding “GCUUGUAGAGGAUAUACAAGGGCCUUAGCGGAAAACUCCGCACAUGAGGAUCACCCAUGUAGAAGGCUACCACC [Isrianqu] (puzzle: Exclusion 2)”, the “apparent KD of MS2 coat protein” value under setting [1] amounted to 15.1 nM.
Regarding “GCUUUUCUUUUCCUUUCUUACAUGAGGAUCACCCAUGUUUCUUGUCGCGCUCGCGUUGCUCGUCUGUCUGUCUGUUG [salish99_TOv1_r3_079] (puzzle: Sensor v3, turn-off variant 1)”, the “apparent KD of MS2 coat protein” value by setting is: under setting [3], 43.1 nM; under setting [1], 28.9 nM; under setting [4], 54.7 nM.
“GGAAAACAUGAGGAUCACCCAUGUAAGGAUAUGCAAAAGGAUAUAGAAGGAAGAAAAAGCAGAAGGUACAAAGG [salish99-ex1_r3_099] (puzzle: Exclusion 1)”: the “apparent KD of MS2 coat protein” value reads like this: under setting [3], 72.1 nM; under setting [1], 44.8 nM; under setting [4], 57.9 nM.
As to “GGAAAGGUAGGAUAUACGAAGAAAAAGGGUAGAAUAAUAACACAUGAGGAUCACCCAUGUAGAAGGACCAAAUG [Mat - Exclusion 2 - Mod of my Tesla design - D7] (puzzle: Exclusion 2)”, the “apparent KD of MS2 coat protein” value was 71.1 nM under setting [3], 37.8 nM under setting [1] and 29 nM under setting [4].
“GGAACGCGAGGAUAUACAAGGCCGGAAACGGAAAUAGCCUCACAUGAGGAUCACCCAUGUAGAAGGCGCGGAGA [AK-MS2ROC-r4-exclusion2-26] (Eterna round: R97, puzzle: Exclusion 2)”: the “apparent KD of MS2 coat protein” value is, setting by setting: (input ligand: FMN 200 uM) 175 nM; (input ligand: none) 22.1 nM.
“GGAAUACAUGAGGAUCACCCAUGUAAGGAUAUGCUGAAUAACACGGAAUUAACGUGCAGCAGAAGGUACAAAUG [Mat - Mod of my Eli Mod D44] (puzzle: Exclusion 1)”: the “apparent KD of MS2 coat protein” value is, setting by setting: under setting [3], 105 nM; under setting [1], 112 nM; under setting [4], 93.2 nM.
“GGAAUGUAAGGAUAUCCGAAAGGCGAGCGAAAGCGAGCAAAGGAGAAGGUACAUGAGGAUCACCCAUGUAAGGG [AK-MS2ROC-r4-exclusion4-11.3] (Eterna round: R97, puzzle: Exclusion 4)”: the “apparent KD of MS2 coat protein” value is, setting by setting: (input ligand: FMN 200 uM) 163 nM; (input ligand: none) 513 nM.
As to “GGACAUAAAGUCAGGAUAUUAAGGCGAACAAGCGAUGAGAAGGGACAUGAGGAUCACCCAUGUGAUUCUCAUCA [Isedzaor] (Eterna round: R97, puzzle: Brourd's mod of Exclusion 4)”, the “apparent KD of MS2 coat protein” value is, setting by setting: (input ligand: FMN 200 uM) 20.5 nM; (input ligand: none) 14 nM.
In the case of “GGACCCAAAGGAUAUACUUGAGGAUCACCCAAGUAUGUCGCUUGGGCACGGUAAAGGAGUAGAAGGUUGGGAAA [Esri] (Eterna round: R97, puzzle: Exclusion 3)”, the “apparent KD of MS2 coat protein” value (input ligand: FMN 200 uM) came to 17.6 nM and the “apparent KD of MS2 coat protein” value (input ligand: none) came out at 14.4 nM.
With “GGACCGUGAGGAUAUAGAGGUCGCGUCAUAGGGCGUGGUUACUAGAAGGCACAUGAGGAUCACCCAUGUUCAUC [Eternabot (L1) Solution 7] (Eterna round: R97, puzzle: Exclusion 4)”, the “apparent KD of MS2 coat protein” value is, setting by setting: (input ligand: FMN 200 uM) 50.4 nM; (input ligand: none) 19.7 nM.
In the case of “GGAGAGAGGCAGGAUAUGGGAGGGAGGACCGGACCAGAAGGGUUGACAUGAGGAUCACCCAUGUAGAGAUCCUC [AK-MS2ROC-r4-exclusion6-6.8] (Eterna round: R97, puzzle: Exclusion 6)”, the “apparent KD of MS2 coat protein” value reads like this: (input ligand: FMN 200 uM) 563 nM; (input ligand: none) 1140 nM.
In the case of “GGAGGAAGAGAGGAUAUGCGCUCAAGGAGAAAAGCAGAAGGUUCAACAUGAGGAUCACCCAUGUAUGAUCCUCA [AK-MS2ROC-r4-exclusion6-4] (Eterna round: R97, puzzle: Exclusion 6)”, the “apparent KD of MS2 coat protein” value is, setting by setting: (input ligand: FMN 200 uM) 342 nM; (input ligand: none) 203 nM.
On to “GGAUCGAAUGUGAGGAUAUGCAGGUCCUUGGAUCUGCAGAAGGCACAUGAGGAUCACCCAUGUGACCUAGAUCC [Mat - Exclusion 4 - Eli Mod - D44] (Eterna round: R97, puzzle: Brourd's mod of Exclusion 4)”, for which the “apparent KD of MS2 coat protein” value by setting is: (input ligand: FMN 200 uM) 268 nM; (input ligand: none) 30.5 nM.
On to “GGAUCGAGUGUGAGGAUAUACCACUGGAUACAGUGGUAGAAGGCACAUGAGGAUCACCCAUGUCUCUACGAUCC [Fiskers BMX 4 - 44] (puzzle: Brourd's mod of Exclusion 4)”, for which the “apparent KD of MS2 coat protein” value under setting [1] amounted to 16.3 nM.
Consider “GGAUCGUAUGUCAGGAUAUACCACUGGAUACAGUGGUAGAAGGGACAUGAGGAUCACCCAUGUGUUAUCGAUCC [Fiskers BMX 4 - 55] (puzzle: Brourd's mod of Exclusion 4)”, for which the “apparent KD of MS2 coat protein” value under setting [1] came to 41.5 nM.
Consider “GGAUCUUGGGUCAGGAUAUGCUGGUAUUUUUGCCAGCAGAAGGGACAUGAGGAUCACCCAUGUUCUUGGUUUUG [Magic-15] (puzzle: Brourd's mod of Exclusion 4)”, for which the “apparent KD of MS2 coat protein” value under setting [1] turned out to be 11 nM.
Take “GGCAAUAUGUAGGAUAUCGUAUUGGAAACAAUACGAGAAGGGCAAACAUGAGGAUCACCCAUGUUCCUUAAGCC [Mat - Exclusion 6 - Eli Mod - D68] (puzzle: Exclusion 6)”: the “apparent KD of MS2 coat protein” value under setting [3] was found to be 18.6 nM, the “apparent KD of MS2 coat protein” value under setting [1] was 17.6 nM and the “apparent KD of MS2 coat protein” value under setting [4] came out at 16.6 nM.
As to “GGCAUCGGAGGAUAUACUUAUGGUGAUACCAGAAGCUUUCUACUUGAGGAUCACCCAAGUAGAAGGCCGAUGCC [jl-ex2.4.86 ViennaUCT mod] (Eterna round: R97, puzzle: Exclusion 2)”, the “apparent KD of MS2 coat protein” value amounted to 17.5 nM (input ligand: FMN 200 uM) and 26.2 nM (input ligand: none).
Taken in the same sequence, the figures for “GGCGCCUCAGGAUAUCAGUCUGGAUCAGAAUAGAUCCUGACUGAGAAGGGACAUGAGGAUCACCCAUGUUCGCC [Eli 4x 4.29] (Eterna round: R97, puzzle: Exclusion 4)” were 20.8 nM and 18.9 nM.
With “GGCGGACAUGAGGAUCACCCAUGUUAGGAUAUGGUGCGAUCGUCGAUAGACGAUAGCACCAGAAGGGACACGCC [Mat - Exclusion 1 - Eli Mod - D2] (Eterna round: R97, puzzle: Exclusion 1)”, the “apparent KD of MS2 coat protein” value reads like this: (input ligand: FMN 200 uM) 16.6 nM; (input ligand: none) 16.9 nM.
In the case of “GGGAAGGGAGGAUAUGAGGGAGAGAACAUGAGGAUCACCCAUGUGAGACCUCAGGAUCGAUCAGAAGGCCCGACCC [AK-MS2ROC-r4-exclusion5-13.1] (Eterna round: R97, puzzle: Exclusion 5)”, the “apparent KD of MS2 coat protein” value (input ligand: FMN 200 uM) came out at 824 nM and the “apparent KD of MS2 coat protein” value (input ligand: none) came to 92.2 nM.
